For six molecules, interaction score results are on record in paper PMC10397247.

The target of one assay is T1, P3A-bA.
T1 chain: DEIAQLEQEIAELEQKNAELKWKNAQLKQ
In words: two-hybrid library CCNG1.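 Also: natural log of median RNA to DNA barcode read ratio; higher means stronger binding.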

For the next assay, the target named is T2, P4A-bA.
T2 chain: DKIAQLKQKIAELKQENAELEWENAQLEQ
In words: two-hybrid library CCNG1.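 Also: natural log of median RNA to DNA barcode read ratio; higher means stronger binding.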

Another assay concerns the target T3, P5A-bA.
T3 chain: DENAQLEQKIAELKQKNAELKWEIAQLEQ
The experiment in a line: two-hybrid library CCNG1.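 Also: natural log of median RNA to DNA barcode read ratio; higher means stronger binding.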

In the next assay the target is T4, P6A-bA.
T4 chain: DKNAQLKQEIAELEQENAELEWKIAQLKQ
In words: two-hybrid library CCNG1.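 Also: natural log of median RNA to DNA barcode read ratio; higher means stronger binding.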

Another assay addresses T5, P7A-bA.
T5 chain: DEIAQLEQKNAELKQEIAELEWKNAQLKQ
The experiment in a line: two-hybrid library CCNG1.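 Also: natural log of median RNA to DNA barcode read ratio; higher means stronger binding.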

For the next assay, the target named is T6, P8A-bA.
T6 chain: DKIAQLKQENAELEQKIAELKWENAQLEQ
In words: two-hybrid library CCNG1.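 Also: natural log of median RNA to DNA barcode read ratio; higher means stronger binding.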

Another assay concerns the target T7, P9A-bA.
T7 chain: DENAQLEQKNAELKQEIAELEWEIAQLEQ
In words: two-hybrid library CCNG1.

The next assay addresses T8, 4H2504-AA.
T8 chain: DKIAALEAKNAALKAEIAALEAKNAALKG
The experiment in a line: two-hybrid library CCmax.

The next assay deals with T9, 4H2592-AA.
T9 chain: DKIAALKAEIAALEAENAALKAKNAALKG
In words: two-hybrid library CCmax.

A further assay deals with T10, 4H2611-AA.
T10 chain: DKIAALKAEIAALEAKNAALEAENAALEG
In words: two-hybrid library CCmax. The following applies: mean of both orientations.

Another assay deals with T11, 4H2774-AA.
T11 chain: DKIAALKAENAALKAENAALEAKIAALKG
In words: two-hybrid library CCmax. The following applies: mean of both orientations.

Another assay deals with T12, 4H3001-AA.
T12 chain: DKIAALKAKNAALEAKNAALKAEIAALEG
In words: two-hybrid library CCmax. The following applies: mean of both orientations.

The next assay concerns the target T13, 4H3340-AA.
T13 chain: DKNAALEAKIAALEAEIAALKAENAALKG
In words: two-hybrid library CCmax.

The next assay concerns the target T14, 4H3381-AA.
T14 chain: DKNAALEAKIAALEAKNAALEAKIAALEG
The experiment in a line: two-hybrid library CCmax. The following applies: mean of both orientations.

Another assay deals with T15, 4H347-AA.
T15 chain: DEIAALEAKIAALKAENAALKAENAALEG
In words: two-hybrid library CCmax. The following applies: mean of both orientations.

In the next assay the target is T16, 4H3493-AA.
T16 chain: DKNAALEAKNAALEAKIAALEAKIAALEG
In words: two-hybrid library CCmax. The following applies: mean of both orientations.

Another assay addresses T17, 4H376-AA.
T17 chain: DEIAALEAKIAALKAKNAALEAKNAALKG
In words: two-hybrid library CCmax. The following applies: mean of both orientations.

For another assay, the target named is T18, 4H406-AA.
T18 chain: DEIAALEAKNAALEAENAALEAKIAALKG
In words: two-hybrid library CCmax. The following applies: mean of both orientations.

A further assay addresses T19, 4H688-AA.
T19 chain: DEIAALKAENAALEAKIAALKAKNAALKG
The experiment in a line: two-hybrid library CCmax. The following applies: mean of both orientations.

The next assay addresses T20, 4H963-AA.
T20 chain: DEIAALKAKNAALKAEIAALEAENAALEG
The experiment in a line: two-hybrid library CCmax. The following applies: mean of both orientations.

A further assay addresses T21, 4H3185-bA.
T21 chain: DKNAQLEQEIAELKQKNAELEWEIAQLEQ
The experiment in a line: two-hybrid library CCNG1.

A further assay has as its target T22, 4H331-bA.
T22 chain: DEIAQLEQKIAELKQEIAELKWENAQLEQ
In words: two-hybrid library CCNG1.

The target of the next assay is T23, 4H3354-bA.
T23 chain: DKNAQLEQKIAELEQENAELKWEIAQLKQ
The experiment in a line: two-hybrid library CCNG1.

For a further assay, the target named is T24, 4H338-bA.
T24 chain: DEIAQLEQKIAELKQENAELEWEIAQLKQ
In words: two-hybrid library CCNG1.

In the next assay the target is T25, 4H3427-bA.
T25 chain: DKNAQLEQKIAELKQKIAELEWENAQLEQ
The experiment in a line: two-hybrid library CCNG1.

In the next assay the target is T26, 4H3782-bA.
T26 chain: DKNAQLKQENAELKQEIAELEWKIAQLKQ
The experiment in a line: two-hybrid library CCNG1.

A further assay addresses T27, 4H3843-bA.
T27 chain: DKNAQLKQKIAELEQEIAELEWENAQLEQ
The experiment in a line: two-hybrid library CCNG1.

The next assay addresses T28, 4H3855-bA.
T28 chain: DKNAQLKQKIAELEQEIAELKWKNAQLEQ
The experiment in a line: two-hybrid library CCNG1.

The target of the next assay is T29, 4H4001-bA.
T29 chain: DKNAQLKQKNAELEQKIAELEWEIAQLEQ
The experiment in a line: two-hybrid library CCNG1.

A further assay deals with T30, 4H454-bA.
T30 chain: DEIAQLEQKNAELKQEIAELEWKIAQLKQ
In words: two-hybrid library CCNG1.

For another assay, the target named is T31, 4H568-bA.
T31 chain: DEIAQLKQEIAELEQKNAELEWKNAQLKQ
The experiment in a line: two-hybrid library CCNG1.

In the next assay the target is T32, 4H607-bA.
T32 chain: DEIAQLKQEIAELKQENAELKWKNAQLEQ
The experiment in a line: two-hybrid library CCNG1.

A further assay addresses T33, 4H687-bA.
T33 chain: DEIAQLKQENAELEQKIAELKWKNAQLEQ
The experiment in a line: two-hybrid library CCNG1.

Another assay has as its target T34, 4H717-bA.
T34 chain: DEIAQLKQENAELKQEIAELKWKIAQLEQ
The experiment in a line: two-hybrid library CCNG1.

For the next assay, the target named is T35, 4H72-bA.
T35 chain: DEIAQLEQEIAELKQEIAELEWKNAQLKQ
In words: two-hybrid library CCNG1.

Another assay concerns the target T36, 4H754-bA.
T36 chain: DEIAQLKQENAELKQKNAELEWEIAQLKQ
In words: two-hybrid library CCNG1.

The next assay concerns the target T37, 4H797-bA.
T37 chain: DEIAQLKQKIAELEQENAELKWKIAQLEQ
The experiment in a line: two-hybrid library CCNG1.

The next assay addresses T38, 4H883-bA.
T38 chain: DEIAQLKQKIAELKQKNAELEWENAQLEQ
The experiment in a line: two-hybrid library CCNG1.

A further assay has as its target T39, 4H908-bA.
T39 chain: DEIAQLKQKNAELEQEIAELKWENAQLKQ
In words: two-hybrid library CCNG1.

The next assay has as its target T40, 4H918-bA.
T40 chain: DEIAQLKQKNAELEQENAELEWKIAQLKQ
In words: two-hybrid library CCNG1.

A further assay deals with T41, 4H953-bA.
T41 chain: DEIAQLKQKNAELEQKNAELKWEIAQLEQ
In words: two-hybrid library CCNG1.

Another assay deals with T42, 4H967-bA.
T42 chain: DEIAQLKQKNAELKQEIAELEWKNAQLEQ
In words: two-hybrid library CCNG1.

The target in the next assay is T43, 4H3601-bA.
T43 chain: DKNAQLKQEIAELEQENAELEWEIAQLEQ
The experiment in a line: two-hybrid library CCNG1.

The target in a further assay is T44, 4H3907-bA.
T44 chain: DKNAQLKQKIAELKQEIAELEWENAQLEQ
In words: two-hybrid library CCNG1.

For the next assay, the target named is T45, 4H4038-bA.
T45 chain: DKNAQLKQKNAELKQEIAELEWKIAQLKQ
In words: two-hybrid library CCNG1.

Consider DKIAQLKQKNAELKQKNAELKWKIAQLKQ [P2A-bA], for which the interaction score was -0.686 with P3A-bA; 0.0163 with P4A-bA; -0.638 with P5A-bA; 0.426 with P6A-bA; -0.916 in the assay with P7A-bA; -0.64 in the assay with P8A-bA. The molecule further returned an interaction score with P9A-bA of 0.702.
On to DEIAQLEQEIAELEQKNAELKWKNAQLKQ [P3A-bA], for which the interaction score in the assay with P3A-bA was -1.07; with P4A-bA it was 2.18; with P5A-bA it was -0.684; with P6A-bA, 1.19; with P7A-bA, -1.05; with P8A-bA it was 0.146. The interaction score with P9A-bA came out at 0.237.
For DKIAALEAKNAALKAEIAALEAKNAALKG [4H2504-AA], the interaction score is -0.729 with 4H2504-AA; -1.07 with 4H2592-AA; -2.59 in the assay with 4H2611-AA; -1.42 with 4H2774-AA; -1.38 with 4H3001-AA; -1.51 with 4H3340-AA. The interaction score with 4H3381-AA is -0.947; with 4H347-AA it was -1.77; with 4H3493-AA, -1.14; with 4H376-AA, -1.78; with 4H406-AA it was 0.644; in the assay with 4H688-AA, 0.978. Besides, in the assay with 4H963-AA, the interaction score is -0.737.
DKNAQLEQEIAELKQKNAELEWEIAQLEQ [4H3185-bA]: the interaction score with 4H3185-bA is -0.903; with 4H331-bA it was -1.49; in the assay with 4H3354-bA it was -1.03; with 4H338-bA, -1.39; with 4H3427-bA it was -0.483; with 4H3782-bA, -1.06. In addition, the interaction score is -0.572 in the assay with 4H3843-bA; -0.974 in the assay with 4H3855-bA; -0.835 in the assay with 4H4001-bA; -1.66 in the assay with 4H454-bA; -1.72 with 4H568-bA; -1.07 with 4H607-bA. Also, the interaction score was -0.744 in the assay with 4H687-bA; -1.46 in the assay with 4H717-bA; -1.82 with 4H72-bA; -0.86 with 4H754-bA; -1.99 with 4H797-bA; -1.49 with 4H883-bA. For the same molecule, the interaction score was -1.86 with 4H908-bA; -1.76 in the assay with 4H918-bA; -1.76 in the assay with 4H953-bA; -0.96 with 4H967-bA; -0.564 with P3A-bA.
On to DEIAQLEQENAELEQENAELEWEIAQLEQ [P1A-bA], for which the interaction score with P3A-bA is -1.12; in the assay with P4A-bA, -1.08; with P5A-bA, -1.1; with P6A-bA, -1.21; in the assay with P7A-bA, -0.804; in the assay with P8A-bA, -0.805. For the same molecule, the interaction score in the assay with P9A-bA was -1.21.
As to DKNAQLKQEIAELEQENAELEWEIAQLEQ [4H3601-bA], the interaction score with 4H3601-bA was -0.859; with 4H3907-bA, -1.15; in the assay with 4H4038-bA, -1.28.
